Patent US11505811B2, “Method for the preparation of 2,4-dihydroxybutyrate” (ADISSEO FRANCE S.A.S., priority 2012, dated 2022)
Positions count from the first letter of the chain named. In names and notes the source's numbering stands.

Assays:
Conditions in all cases: other: pH 7, 37° C., 0.25 mM NADH
[1] = substrate: CC(=O)C(=O)O; test: OHB/pyruvate reductase assay, Ll-Ldh wild type; assay type: biochemical, Lactococcus lactis
Source text: (§1) The genes coding for (L)-malate dehydrogenase in Escherichia coli, Ec-mdh (SEQ ID NO: 1), (D)-lactate dehydrogenase in E. coli, Ec-ldhA (SEQ ID NO: 3), (L)-lactate dehydrogenase of Lactococcus lactis, Ll-ldhA (SEQ ID NO: 5), (L)-lactate dehydrogenase of Bacillus subtilis, Bs-ldh (SEQ ID NO: 7), (L)-lactate dehydrogenase of Geobacillus stearothermophilus, Gs-ldh (SEQ ID NO: 9), the two isoforms of the (L)-lactate dehydrogenase of Oryctalagus cuniculus, Oc-ldhA (SEQ ID NO: 11 and SEQ ID NO: 13), were amplified by PCR using the high-fidelity polymerase Phusion™ (Fermentas) and the primers listed in Table 1. Genomic DNAs of E. coli MG1655, L. lactis IL1403, and B. subtilis strain 168 were used as the template. The genes Oc-ldhA, and Gs-ldh were codon-optimized for expression in E. coli and synthesized by MWG Eurofins. The primers introduced restriction sites (Table 1) upstream of the start codon and downstream of the stop codon, respectively, facilitating the ligation of the digested PCR products into the corresponding sites of the pET28a+ (Novagen) expression vector using T4 DNA ligase (Fermentas). Ligation products were transformed into E. coli DH5a cells (NEB). […]

[2] = substrate: O=C(O)C(=O)CCO; test: OHB/pyruvate reductase assay, Ll-LdhA Q85N I226V; assay type: biochemical, Lactococcus lactis
Protocol: (§2) Enzymatic assays: The reaction mixture contained 60 mM Hepes (pH 7), 50 mM potassium chloride, 5 mM MgCl2, 0.25 mM NADH, (optionally 5 mM fructose-1,6-bisphosphate) (all products from Sigma), and appropriate amounts of purified malate or lactate dehydrogenase or cell extract. Reactions were started by adding appropriate amounts of 2-oxo-4-hydroxybutyrate (OHB), pyruvate, or oxaloacetate (OAA). Enzymatic assays were carried out at 37° C. in 96-well flat bottomed microtiter plates in a final volume of 250 μL. The reactions were followed by the characteristic absorption of NADH at 340 nm (εNADH=6.22 mM^−1 cm^−1) in a microplate reader (BioRad 680XR).
(§3) Site-directed mutagenesis of the L. lactis ldhA gene was carried out using the pET28-Ll-ldhA plasmid as the template. Point mutations to change the amino acid sequence were introduced by PCR (Phusion 1U, HF buffer 20% (v/v), dNTPs 0.2 mM, direct and reverse primers 0.04 μM each, template plasmid 30-50 ng, water) using the oligonucleotide pairs listed in Table 3. The genes mutated by PCR contained a new restriction site listed in Table 3 (introduced using silent mutations) in addition to the functional mutation to facilitate identification of mutated clones. The PCR products were digested by DpnI at 37° C. for 1 h to remove template DNA, and transformed into competent E. coli DH5α (NEB) cells. […]

[3] = substrate: CC(=O)C(=O)O; test: OHB/pyruvate reductase assay, Ll-LdhA Q85N I226V; assay type: biochemical, Lactococcus lactis
Protocol: as §2, §3

[4] = substrate: O=C(O)C(=O)CCO; test: OHB/pyruvate reductase assay, Ll-LdhA Q85N; assay type: biochemical, Lactococcus lactis
Protocol: as §2, §3

[5] = substrate: CC(=O)C(=O)O; test: OHB/pyruvate reductase assay, Ll-LdhA Q85N; assay type: biochemical, Lactococcus lactis
Protocol: as §2, §3

[6] = substrate: O=C(O)C(=O)CCO; test: OHB/pyruvate reductase assay, Gs-Ldh; assay type: biochemical, Geobacillus stearothermophilus
Source text: as §1

[7] = substrate: CC(=O)C(=O)O; test: OHB/pyruvate reductase assay, Gs-Ldh; assay type: biochemical, Geobacillus stearothermophilus
Source text: as §1

[8] = substrate: O=C(O)C(=O)CCO; test: OHB/pyruvate reductase assay, Ec-LdhA; assay type: biochemical, Escherichia coli
Source text: as §1

[9] = substrate: CC(=O)C(=O)O; test: OHB/pyruvate reductase assay, Ec-LdhA; assay type: biochemical, Escherichia coli
Source text: as §1

[10] = substrate: O=C(O)CC(=O)C(=O)O; test: OHB/oxaloacetate reductase assay (NADH oxidation at 340 nm), Ec-Mdh wild type; assay type: biochemical, Escherichia coli
Source text: as §1

[11] = substrate: O=C(O)C(=O)CCO; test: OHB/oxaloacetate reductase assay, Ec-Mdh R81A M85Q I12V; assay type: biochemical, Escherichia coli
Protocol: as §2
Site-directed mutagenesis of the mdh gene from E. coli was carried out as described in Example 2 using the primers listed in Table 5. Plasmid pET28-Ec-mdh was used as the template.
Mutant enzymes were expressed, purified and tested for OHB and oxaloacetate reductase activity as described in Example 1. […] The mutation R81A in Ec-Mdh was combined with additional changes in the protein sequence.

B1: Lactococcus lactis (L)-lactate dehydrogenase Ll-LdhA (Ll-Ldh), wild type, SEQ ID NO: 6 (Lactococcus lactis subsp. lactis Il1403) (protein)
chain: MADKQRKKVILVGDGAVGSSYAFALVNQGIAQELGIVDLFKEKTQGDAEDLSHALAFTSPKKIYSADYSDASDADLVVLTSGAPQKPGETRLDLVEKNLRITKDVVTKIVASGFKGIFLVAANPVDILTYATWKFSGFPKNRVVGSGTSLDTARFRQALAEKVDVDARSIHAYIMGEHGDSEFAVWSHANVAGVKLEQWFQENDYLNEAEIVELFESVRDAAYSIIAKKGATFYGVAVALARITKAILDDEHAVLPVSVFQDGQYGVSDCYLGQPAVVGAEGVVNPIHIPLNDAEMQKMEASGAQLKAIIDEAFAKEEFASAVKN
Km [1]: 2.7 mM

B2: Lactococcus lactis (L)-lactate dehydrogenase A Ll-LdhA variant Q85N I226V (Q85NI226V), SEQ ID No. 32 (Lactococcus lactis subsp. lactis Il1403; I226V/Q85N) (protein)
chain: B1 chain with Q85N, I226V
Km [2]: 3.3 mM | Km [3]: 1.4 mM

B3: Lactococcus lactis (L)-lactate dehydrogenase A Ll-LdhA variant Q85N, SEQ ID No. 30 (Lactococcus lactis subsp. lactis Il1403; Q85N) (protein)
chain: B1 chain with Q85N
Km [4]: 29.2 mM | Km [5]: 22.1 mM

B4: Geobacillus stearothermophilus (L)-lactate dehydrogenase Gs-Ldh, SEQ ID NO: 10 (Geobacillus stearothermophilus) (protein)
chain: MKNNGGARVVVIGAGFVGASYVFALMNQGIADEIVLIDANESKAIGDAMDFNHGKVFAPKPVDIWHGDYDDCRDADLVVICAGANQKPGETRLDLVDKNIAIFRSIVESVMASGFQGLFLVATNPVDILTYATWKFSGLPHERVIGSGTILDTARFRFLLGEYFSVAPQNVHAYIIGEHGDTELPVWSQAYIGVMPIRKLVESKGEEAQKDLERIFVNVRDAAYQIIEKKGATYYGIAMGLARVTRAILHNENAILTVSAYLDGLYGERDVYIGVPAVINRNGIREVIEIELNDDEKNRFHHSAATLKSVLARAFTR
notes: made in house; host or cells: E. coli BL21 (DE3) star
Km [6]: 1.3 mM | Km [7]: 1.2 mM

B5: Escherichia coli (D)-lactate dehydrogenase Ec-LdhA, SEQ ID NO: 4 (Escherichia coli K-12) (protein)
chain: MKLAVYSTKQYDKKYLQQVNESFGFELEFFDFLLTEKTAKTANGCEAVCIFVNDDGSRPVLEELKKHGVKYIALRCAGFNNVDLDAAKELGLKVVRVPAYDPEAVAEHAIGMMMTLNRRIHRAYQRTRDANFSLEGLTGFTMYGKTAGVIGTGKIGVAMLRILKGFGMRLLAFDPYPSAAALELGVEYVDLPTLFSESDVISLHCPLTPENYHLLNEAAFEQMKNGVMIVNTSRGALIDSQAAIEALKNQKIGSLGMDVYENERDLFFEDKSNDVIQDDVFRRLSACHNVLFTGHQAFLTAEALTSISQTTLQNLSNLEKGETCPNELV
notes: as for B4
Km [8]: 4.8 mM | Km [9]: 1.8 mM

B6: Escherichia coli (L)-malate dehydrogenase Ec-Mdh, wild type, SEQ ID NO: 2 (Escherichia coli K-12) (protein)
chain: MKVAVLGAAGGIGQALALLLKTQLPSGSELSLYDIAPVTPGVAVDLSHIPTAVKIKGFSGEDATPALEGADVVLISAGVARKPGMDRSDLFNVNAGIVKNLVQQVAKTCPKACIGIITNPVNTTVAIAAEVLKKAGVYDKNKLFGVTTLDIIRSNTFVAELKGKQPGEVEVPVIGGHSGVTILPLLSQVPGVSFTEQEVADLTKRIQNAGTEVVEAKAGGGSATLSMGQAAARFGLSLVRALQGEQGVVECAYVEGDGQYARFFSQPLLLGKNGVEERKSIGTLSAFEQNALEGMLDTLKKDIALGEEFVNK
notes: as for B4
Km [10]: 0.04 mM

B7: Escherichia coli malate dehydrogenase Ec-Mdh variant R81A M85Q I12V, SEQ ID No. 108 (Escherichia coli K-12; I12V/M85Q/R81A) (protein)
chain: B6 chain with I12V, R81A, M85Q
Km [11]: 15 mM
